In article doi:10.1101/2025.05.01.651538:

Target: wild-type unmodified 147bp nucleosome (nucleosome core particle, human histones)
Experiment: EMSA
Conditions: chain shown with the change; 0-32 µM KDM5A^MutR titrated against 147bp nucleosome

Kd: 14 µM
B1: KDM5A^CAT (KDM5A 1–801, minimal catalytically active construct), P29375 R210A; R217A; R219A; R220A; R232A; R264A; R265A; R266A; R271A; R280A; R282A (protein)
chain: MAGVGPGGYAAEFVPPPECPVFEPSWEEFTDPLSFIGRIRPLAEKTGICKIRPPKDWQPPFACEVKSFRFTPRVQRLNELEAMTRVRLDFLDQLAKFWELQGSTLKIPVVERKILDLYALSKIVASKGGFEMVTKEKKWSKVGSRLGYLPGKGTGSLLKSHYERILYPYELFQSGVSLMGVQMPNLDLKEKVEPEVLSTDTQTSPEPGTAMNILPKATAAVKTQSESGDVSANTELKKLQIFGAGPKVVGLAMGTKDKEDEVTAAAKVTNASDAFNMQMAQAKGTLSVNFVDLYVCMFCGRGNNEDKLLLCDGCDDSYHTFCLIPPLPDVPKGDWRCPKCVAEECSKPREAFGFEQAVREYTLQSFGEMADNFKSDYFNMPVHMVPTELVEKEFWRLVSSIEEDVIVEYGADISSKDFGSGFPVKDGRRKILPEEEEYALSGWNLNNMPVLEQSVLAHINVDISGMKVPWLYVGMCFSSFCWHIEDHWSYSINYLHWGEPKTWYGVPSHAAEQLEEVMRELAPELFESQPDLLHQLVTIMNPNVLMEHGVPVYRTNQCAGEFVVTFPRAYHSGFNQGYNFAEAVNFCTADWLPIGRQCVNHYRRLRRHCVFSHEELIFKMAADPECLDVGLAAMVCKELTLMTEEETRLRESVVQMGVLMSEEEVFELVPDDERQCSACRTTCFLSALTCSCNPERLVCLYHPTDLCPCPMQKKCLRYRYPLEDLPSLLYGVKVRAQSYDTWVSRVTEALSANFNHKKDLIELRVMLEDAEDRKYPENDLFRKLRDAVKEAETCASVAQLL
